In the nanobody polyreactivity screen of Harvey et al. (2022):

Test: yeast display, Sf9 membrane polyspecificity reagent, FACS + sequencing; frameworks hold sequencing errors
Outline: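 In a synthetic yeast display library (Saccharomyces cerevisiae BJ5465), nanobody expression was induced with galactose for 36–48 hours. FACS gates were set low and high (top ~1%) using anti-HA fluorescence for expression and streptavidin fluorescence for binding of the Sf9 membrane reagent. Each polyreactivity label is drawn from the gate of origin.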

Row | Sequence | polyreactivity (PSR sort gate)
1 | QVQLVESGGGLVQAGGSLRLSCAASGIIFRGYVMGWYRQAPGKERELVAAISTSGGRTSYADSVKGRFTISRDNAKNTVYLQMNSLKPEDTAVYYCAARPLYSYSQWGYGYWGQGTQVTVSS | high polyreactivity
2 | QVQLVESGGGLVQAGGSLRLSCAASGSIFERYALGWYSQAPGKEREMVAAITWTGGRTYYADSVKGRFTISRDIAKNTVYLQMNSLKPEDTAVYYCARSYTRRGYDYWGLGTQVTVSS | high polyreactivity
3 | QVQLVESGGGLVQAGGSLRLSCAASGLIFSYYPMGWYRQAPGKERELVAAITGSGGTTYYADSVKGRFTISRDNAKNTVYLQMNSLKPEDTAVYYCATSPPEVWQRWYREYDYWGQVTQVTVSS | low polyreactivity
4 | QFQLVESGGGLVQAGGSLRLSCAASGRTFAWNAMGWYRQAPGKERELVAAISYNGGRTYYADSVKGRFTISRDNAKNTVYFQMNSLKPEDTAVYYCAAQRYGYWGQGTQVTVSS | high polyreactivity
5 | QVQLVESVGGLVQAGGSLRLSCAASGRILKRNAMGWYRQAPGKERELVAAISWSTGTTYYADSVKGRFTISRDNAKNTVYLQMKSLKPEDTAVYYSAKQIVSGRRVDRNDYWGQGTQVSVSS | low polyreactivity
6 | QVQLQESGGGLVQAGRSLRLSCEASGSISILQSMGWYRQAPGKEGELVAGINWGATTYYADSVKVRLTTSRDYAKNTVYLEMNSLKPEETAVYYCAVPTYYTYPLLYWGPGTQVTVSS | low polyreactivity
7 | HVQLVESGGGLVQAGGSLRLSCAASGRTLYRNAMGWYRQAPGKERELVARITWSGASTYYADYVKGRFTISRDNAKNTVYLQMNSLKPEVTAVYYCAAQYLSRRYGPYYTYNYWGLGTQVTVSS | high polyreactivity
8 | QVQLVQSGGGIVQAGGSLRLSCAAYGITFGRNNMGWDRQAPGKERELVAALDSGGNTYADSVKGRFTISRDNAKQTVYVQMNSLKPEDTAVYDCAVDGGEFSSYGYWGQGTQVTVSS | low polyreactivity
9 | QVQLVESGGGLVQAGGSLRLSCAASGRTFFINTMGWYRQAPGKEREFVAAITWSAGRTYYADSVKGRFTISRDNAKNTVYLQMNSLKPEDTAVYYCAAALHGHTFPFYYWGQGTQVTVSS | low polyreactivity
10 | QVQLVESGGGLVQAGGSLRLSCAASGFTFDYYNMGWYRQAPGKERELVAAITSGASTNYADSVKGRFTISRDNAKNTVYLQMNSLKPEDTAVYYCAAVLAGGVYWVVHYDYWGQGTQVTVSS | low polyreactivity
11 | QVQLVESGGGLVQAGGRLRLSCAASGRTFAFYTMGWYRQAPGKEREFVAAISWSGGSTHYADSVKGRFTISRDNAKNTVYLQMNSLKPEDTAVYYCDAGPFYRFTDGRYKTLDYWGQGTQVTVSS | high polyreactivity
12 | QVQLVESGGGLFQEGGSLRLSCAASGSIFNGYAMGWYRQAPGKEREFVDAITFSATSTYYADSVKRRFTLSRDNAKNTVYLQMNSLKPEDTAVYYCAVAVPLSRYWWRRTYDYWGQGTQVTVSS | low polyreactivity
13 | QVQLVESGGGLVQAGGSLRLICAASGSIFGRYAMGWYRQAPGKERELVAAITGSGGTTYYADSVKGRFTISRDNAKNTVYLQMNSLKPEDTAVYYCAADPQVYYSGRPRYDYWGQGTQVTVSS | high polyreactivity
14 | QVQLVESGGGLVQAGGSLRLSCAASGRIFAYYTMGWYRQAPGKERELVASITSGSSTNYADSVKGLFTISRDNAKNTVYLQMNSLKPEDTAVYYCAAPRGSYVRTRYRGYVVQSNYWGQGTQVTVSS | high polyreactivity
15 | QVQLVESGGGLVQAGGSLRLSSAASGFTFYYNAMGWYRQAPGKERELVAAITRTGSTNYADSVKGRFTISRDNAKNTVYLQMNSLKPEDTAVYYCAKTYRRTNWGTYDYWGQGTQVTVSS | high polyreactivity
16 | QVQLVESGAGLVQAGGSLRLSCAASGRTFGSNAMGWYRQAPGKERELVAAITRGGSTNYADSVKGRFTISRDNAKNTVYLQMNSLKPEDTAVYYCAKRSYYRYRYYYWGQGTQVSVSS | high polyreactivity
17 | QVQLVESGGGLVQAGGSLRLSCAASGRIFAHFAMGGYRQAPGKEWELVAAIDSGGSTDYADSVKGRFTISRDNAKNTVYLQMNSLKPEDTAVYYCNAERAYLWWYNFDYWGQGTQVTVSS | low polyreactivity
18 | QVQLVESGGGLVQAGGSLRLICAASGSTFLGYAMGWYRQAPGKERELVAAITYSAGSTYYADSVKGRFTISRDNAKNTVYLQMNSLKPEDTAVYYCAKRYSGYDHWGQGTQVTVSS | low polyreactivity
19 | QVQLVESGGGLVQAGGSLRLTCAASGRIFTHNAMGWYRQAPGKVRELVAAITSGGRTTYADSVKGRFTISRDNAKNTVYLQMNSLKPEDSAVYDCNADTGLGSLDFDKRDYWGQGTQVTVSS | low polyreactivity
20 | QVQLEESGGGLVQAGGRLRLSCAASGSTFVRSVMGSYRAAPGKERELVAAISEGGGSTYYADSVKGRFTISRDNAKNTVYLQMNSLKPEDTAVYYCAAEGYFRYWYGTIQYDYWGQGTQVTVSS | high polyreactivity
21 | QVQLVESGGGLVQAGGSLRLSCAASGITFRYYAMGWSRQAPGKERELVAAITRGGRTNYADSVKGRFTISRDNAKNTVYLQMNSLKPEDTAVYYCATGRDSNFGNSYYYWGQGTQVTVSS | high polyreactivity
22 | QVQLVESGGGLVQAGGSLRLSCAASGRTFYINAMGWYRQAPGKERELVAGINSRGGSTYADSVKGRFTISRDNAKNTVYLQMNSLNPEDTAVYYCNARRKYLGYNYWGQGTQVTVSS | high polyreactivity

Row | Sequence | polyreactivity (PSR sort gate)
23 | QVQLVESGAGLVQAGGILRLSCAASGRTFKVYAMGWDRQAPGKERELVAAISDRGGSTYDADSVKGRFTISRDYAKNTVYLQMNSLKPVDTAVYYCSAEYARSTWRAFPELDYWGQGTQVTVSS | low polyreactivity
24 | QVQLVESGGGLVQAGGSLRLRCAASGRTFYGYDMGWYRQAPGKERELVATISSGGSTNYADSVKGRFTFSRDNAKNTVYLQMNSLKPEDTAVYYCNADRYVDPRTYFGYDYCGQGTQVTVSS | low polyreactivity
25 | QVQLVESGGGLVQAGGSLRLSCAASGSIFWYNTMGWYRQAPGKERELVAAISYRGGRTYYADSVKGRFTISRDNAKNTVYLQMNSLKPEDTAVYYCNAPRYLGGGQDALGDYWGQGTQVTVSS | high polyreactivity
26 | QVHLVESGGGLVQAGGSLRLSCAASGFTFSSNAMGWYRQAPGKERELVAAIRSGGTTKYADSVKGRFTISRDNAKNTLYLQMNSLKPEDTAVYYCAARIRDLAGYYYWGQGTQVTVSS | high polyreactivity
27 | QVQLVESGGGLVQAGGSLRLSCAASGRIFNTYAMGWYRQAPGKERELVAVISSRGGSTYYADSVKGRFTISRDNAKNTVYLQMNSLKPEDTAVYYCAARGRGQPFVRYDYWGQGTQVTVSS | high polyreactivity
28 | QVQLVESGGGLVQAGGSLRLSCAASGSTLFDYTMGWYRQAPGNVRELVAAISSSGITDYADSVKGRFTISRDNAQNTVYLQMNSLKPDETAVYYCNARSQKATRYDYWGQGTQVTVSS | high polyreactivity
29 | QVQLVESGGGLVQAGGSLRLSCAPSGFTFYTYAMGWYRQAPGKERELVAVISRSGGRTNYADSVKGRFTISRDNAKNTVYLQMNSLKPEDTAVYYCNRYDRQRSWSVGYDYWGQGTQVTVSS | high polyreactivity
30 | QVQLVESGGGLVQAGGSLRLSCAASGRTFFDYTMGWYRQAPGKERELVAAITGGDGSTYYADSVKGRFTISRDNAKNTVYLQMNSLKPEDTAVYYCAAGYTAGSYSLDADYYWGQGTQVTVSS | low polyreactivity
31 | QVQLVESGGGLVQAGGTLRVSCAASGLIFYGNVMGWYRQAPGKERELVAGISRNSGSTYYADSVKGRFTISRDNANNTVYLQMNSLKPEDTAVYYCAALKFEAWAGEDYWGPGTQVTVSS | low polyreactivity
32 | QVQLVESGGGLVQAGGSLRLSCAASGSIFLYNTMGWYRQAPGKERELVAAITYSGGSTYYADSVKGRFTISRDNAKNTVYLQMNSLKPEDTAVYYCAARRLPRKERKLYYWGQGTQVTVSS | high polyreactivity
33 | QVQLVESGGGLVQAGGSLSLSCAASGSIFNRYTMGWYRQAPGKERELVADISKSGTRTYYADSVKGRFTISRDNAKNTVYLQMNSQKPEDTSVYYCAKSSVAVYQTRYDYWGQGTQVNVSS | high polyreactivity
34 | QVQLVESGGGLVQAGGSLRLSCAASGLTFLPNAMGWYRQAPGKERELVAAITNGGGTNYADSVKGRFTISRDNAKNTVYLQMNSLKPEDTAVYYCNADSTYFGGHDYWGQGTQVTVSS | low polyreactivity
35 | QVQLEESGGGLVQAGGSLRLSCAASGRIFRYYTMGGYRQAPGKERELVDAISGSGGSTYYADSVKGRFTISRDNAKNTVYLQMNSLKPEDTSVYYCAAAHRYWGQGTQVTVSS | high polyreactivity
36 | QVQLVESGGGLVQAGGSLRLSCAASGFTFSYNSMGRYRQATGKERELVARISRTGGSTNYADSVKGRFTISRDNAKNTVYLQMNSLKPEDTAVYYCGTGYRYTYGSWGQGTQVTVSS | high polyreactivity
37 | QVQLVESGGGLVQAGGSLRLSCDASGRTFRFNDGGWYRQAPVKERELVAAITYRGGSTYYPDSVKGRFTISRDNAKNTVYLQMNSLKPDDTAVYYCAADYFWSRTQEFDYWGQGSQVTVSS | high polyreactivity
38 | QVQLVESGGGLVQAGGSLRLSCAASGSIFWLYAMGWYRQAPGKERELVASITGGGSTNYADSVKGRFTISRDNAKNTVYLQMNSLKPEDTAVYYCAKRYYRPGRKRTGLDYWGQGTQVTVSS | high polyreactivity
39 | QVQLVESGGGLVQAGGSLRLSCAASGSISGYYARGWYRQAPGKERELVASIRYTGARTYYADSVKGRFTISRDNAKYTVYVQMNSLKPEDTAVYYCAATEFTYYYSYDYWGQGTLVTVSS | low polyreactivity
40 | QFQLVESGGRLVQPGGSLRLSCAASGGIFYGYAMGWYRKAPGKERELVAAISSTGGRTYYADSVKGRFTISRDNAKNTVYLQMNSLKPEDTAVSYCAAEDFTRQFEYWGQGTQVTVSS | low polyreactivity
41 | QVQLVESGGGLVQAGGSLRLSSAASGFTSSRNAMGWYRQAPGKERELVATISSGGDTYYADSVKGRFTISRDNAKNTVYLQMNSLKPEDTAVYYCATDRAERTGYTRYVKTYNYWGQGTQVTVSS | low polyreactivity
42 | QVQLVESGGGLVQAGGSLRLSCAASGFSFDTYAMGWYRQAPGKERELVAVISRGGSTYYADSVKGRFTISRDNAKNTVYLQMNSLKPEDTAVYYCAARSHGSYAYQYGYWGQGTQVTVSS | high polyreactivity
43 | QVQLVESGGGLVQAGGSLRLSCAASGRTFGINAMGWYRQAPGKERELVAVISFADGGTYYADSVKGRFTISRDNAKNTVYLQMNSLKPEDTAVYYCATDYQSTSVWGGHFVINPYDYWGLGTQVTVSS | low polyreactivity
